Measured values taken from patent US20090232783, “Method for Regulating Production of Hemoglobin Beta Chains” (published 2009).

B1: mutant oligo no. 1 (dsDNA)
DNA 1: AAGGGGGGAGCCAGTGCCAGAAGAGCCAAGGACAGGT
DNA 2: ACCTGTCCTTGGCTCTTCTGGCACTGGCTCCCCCCTT
B2: mutant oligo no. 2 (dsDNA)
DNA 1: AACTCCTAAGCCAGTGCCAGAAAAAACAAGGACAGGT
DNA 2: ACCTGTCCTTGTTTTTTCTGGCACTGGCTTAGGAGTT
B3: mutant oligo no. 3 (dsDNA)
DNA 1: AACTCCTAAGCCAGTGCCAGAACAGCCAACCCCCCGT
DNA 2: ACGGGGGGTTGGCTGTTCTGGCACTGGCTTAGGAGTT

Molecular target: Nuclear ferritin-H (K562 nuclear extract, crude or heat/proteinase K enriched) (Homo sapiens, UniProt P02794 P02794:2-183)
Test: competition; competes about as well as wt
Settings: protein: extract
Protocol: Gel mobility shift assays. Gel retardation assays (i.e., gel shifts) were used to determine DNA binding of the extract proteins to the Rsa I (95 bp) fragment and synthetic oligonucleotides (Berg et al., (1989) Nucleic Acids Res 17, 8833-52; Fried & Crothers (1981) Nucleic Acids Res 9, 6505-25). Each reaction contained 0.5-2 ng of DNA, 1.0-5.0 ug of extract protein, 1.0-5.0 ug of poly dI:poly dC, 100 mM KCl, and binding buffer (Berg et al., (1989) Nucleic Acids Res 17, 8833-52). Unlabeled competitor oligonucleotides ranged from 15- to 2000-fold molar excess and were included in the reaction mixture with the probe before adding protein. Gels used for retardation assays were 4%, 5%, or 6% acrylamide and the running buffer was low ionic strength TAE (Berg et al., (1989) Nucleic Acids Res 17, 8833-52).
Definition of the binding site with competition gel shifts. To further localize the binding of ferritin, the 37 bp oligonucleotide was mutated in different places, replacing six nucleotides at a time with all A's, all C's, or all G's, with complementary nucleotide replacements in the opposing strand (FIG. 4A). A competition gel shift assay was done with the partially purified protein from heated K562 nuclear extract, in which each of the unlabeled mutant oligos as well as the native sequence was competed against the 32-P-labeled native sequence for binding.

Binding signal, ~1 fold:
B1
B2
B3
